The record followed here is publication PMC4022432, “Complete steady-state rate equation for DNA ligase and its use for measuring product kinetic parameters of NAD^+-dependent DNA ligase from Haemophilus influenzae” (BMC Research Notes, 2014).

Substrate in the data set: NC(=O)c1ccc[n+]([C@@H]2O[C@H](COP(=O)(O)OP(=O)(O)OC[C@H]3O[C@@H](n4cnc5c(N)ncnc54)[C@H](O)[C@@H]3O)[C@@H](O)[C@H]2O)c1
Briefly: purified protein. The conditions noted are these: co-substrate nicked DNA 10-80 nM; room temperature; value from NMN study.

From the text: FRET nick-ligation assay, global nonlinear least-squares fit of NMN product inhibition on NAD^+-dependent DNA ligase from Haemophilus influenzae

B1: NAD^+-dependent DNA ligase from Haemophilus influenzae (Haemophilus influenzae Rd KW20) (protein)
chain: MTNIQTQLDNLRKTLRQYEYEYHVLDNPSVPDSEYDRLFHQLKALELEHPEFLTSDSPTQRVGAKPLSGFSQIRHEIPMLSLDNAFSDAEFNAFVKRIEDRLILLPKPLTFCCEPKLDGLAVSILYVNGELTQAATRGDGTTGEDITANIRTIRNVPLQLLTDNPPARLEVRGEVFMPHAGFERLNKYALEHNEKTFANPRNAAAGSLRQLDPNITSKRPLVLNAYGIGIAEGVDLPTTHYARLQWLKSIGIPVNPEIRLCNGADEVLGFYRDIQNKRSSLGYDIDGTVLKINDIALQNELGFISKAPRWAIAYKFPAQEELTLLNDVEFQVGRTGAITPVAKLEPVFVAGVTVSNATLHNGDEIERLNIAIGDTVVIRRAGDVIPQIIGVLHERRPDNAKPIIFPTNCPVCDSQIIRIEGEAVARCTGGLFCAAQRKEALKHFVSRKAMDIDGVGGKLIEQLVDRELIHTPADLFKLDLTTLTRLERMGAKSAENALNSLENAKSTTLARFIFALGIREVGEATALNLANHFKTLDALKDANLEELQQVPDVGEVVANRIFIFWREAHNVAVVEDLIAQGVHWETVEVKEASENLFKDKTVVLTGTLTQMGRNEAKALLQQLGAKVSGSVSSKTDFVIAGDAAGSKLAKAQELNITVLTEEEFLAQITR
A word on the Km: it is the concentration of substrate that gives half-maximal velocity. As for B1, the Km amounted to 0.65 ± 0.08 µM.
